Assays:
hIAPP [1] = target: T1, hIAPP (Homo sapiens, UniProt P10997); test: Native mass spectrometry (nESI-MS) of peptide-hIAPP interaction; assay type: binding; settings: peptide:hIAPP stoichiometry of complex
T1 construct: A 1 mg portion of amylin trifluoroacetate salt (Bachem) was purchased as lyophilized solid in a vial; purchased Bachem
T1 sequence (P10997 34-70 limits assumed): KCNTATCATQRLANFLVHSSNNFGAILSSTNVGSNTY
Protocol: hIAPP was dissolved in 200 mM ammonium acetate buffer (pH 7.4) to prepare 100 μM hIAPP stock solution. Cyclic peptide was first dissolved in DMSO to 10 mM, then diluted into the buffer to make 1 mM cyclic peptide stock solution. These stock solutions were diluted into the buffer to achieve final concentrations of [hIAPP]=16 μM and [cyclic peptide]=64 μM. The percentage of DMSO in the final solution was 0.64% for all the samples. Prepared samples were incubated quiescently for 20 min at 32° C. Native ESI-MS analysis was then performed on a SELECT SERIES Cyclic IMS Q-TOF (Waters Corp., Wilmslow, U.K.) equipped with nano-ESI interface.
All the samples were analyzed using positive ionization ESI with a capillary voltage of 1.1 kV. The following instrumental parameters were used: source temperature 100° C.; desolvation temperature 250° C.; sampling cone 30 V; backing pressure 2.5 mbar; trap collision energy 6 V; trap DC −4 V; transfer collision energy 4 V. The system was calibrated with NaI cluster ions from a 2 μg/μL 50:50 2-propanol:water solution. Data were acquired over the m/z range of 50-8000 and processed using MassLynxV4.2 (Waters Corp., Wilmslow, U.K.).

hIAPP [2] = target: T1, hIAPP; test: ThT fluorescence assay of in vitro hIAPP aggregation; assay type: biochemical; settings: for effect on aggregation lag time (tlag) / inhibition of hIAPP aggregation (ThT fluorescence): 10 μM hIAPP, PBS pH 6.9, 32° C.; for effect on aggregation lag time (tlag): ThT; for activity relative to MCIP-2a: at higher peptide:hIAPP stoichiometries; for inhibition of hIAPP aggregation (ThT fluorescence): chemically synthesized peptide, quiescent
Protocol: Preparation of ThT stock solution. To prepare a stock solution of ThT (2-3 mM), 2-4 mg of ThT was added to 3 mL PBS (pH 6.9) in a 15 mL conical tube. The solution was sonicated for 5 min and the supernatant was filtered through a 0.22 μm syringe filter into a 1.5 mL Eppendorf tube. This was the ThT stock solution to be used in following experiments. 2 mL of a 1:200 diluted ThT solution was prepared by adding 10 μL ThT stock solution into 1990 μL PBS. The absorbance of the diluted ThT solution measured at 412 nm was used to calculate the ThT stock concentration using an extinction coefficient (c) of 31600 M^−1 cm^−1.
Preparation of hIAPP stocks. A 1 mg portion of amylin trifluoroacetate salt (Bachem) was purchased as lyophilized solid in a vial. The solid was dissolved in pre-chilled 2562 μL 35 mM sodium acetate (pH 5.3) to a stock concentration of 100 μM on ice. Aliquots of hIAPP were prepared by transferring 200 μL of the 100 μM hIAPP stock solution to low-protein-binding Eppendorf tubes on ice. The aliquots were then immediately snap frozen using liquid N2, lyophilized for 24 h, and stored at −80° C. until use.
Preparation of samples for ThT assays. Using cyclic peptide stock solution (100 μM) and PBS, 400 μL aqueous solution of cyclic peptide was prepared in a low-protein-binding Eppendorf tube to achieve the desired cyclic peptide:hIAPP molar ratio (80 μM for 4:1, 40 μM for 2:1, 20 μM for 1:1, 10 μM for 0.5:1, 0 μM for 0:1). 30 μL of the solution was then loaded to wells on a black clear-bottom low-binding 96-well plate (Corning 3881) to make a triplicate for each condition. This plate loaded with aqueous solutions of cyclic peptides was then ready for adding hIAPP.
Preparation and addition of hIAPP for ThT assays. Using ThT stock solution and PBS, 1 mL ThT solution (10 μM) was prepared in a low-protein-binding Eppendorf tube and chilled on ice. 0.5 mL of the pre-chilled ThT solution was added to one aliquot of lyophilized hIAPP, which was equilibrated to room temperature before opening the tube. Pipetting up and down four times was performed to facilitate complete dissolving of hIAPP. The 0.5 mL hIAPP-containing solution was immediately transferred to the remaining 0.5 mL ThT solution on ice. Pipetting up and down four times was performed to facilitate complete mixing. The resulting 1 mL hIAPP solution, where [hIAPP]=20 μM, was immediately transferred to a 25 mL liquid reservoir. Using a multi-channel pipette, 30 μL of the hIAPP solution was quickly loaded into wells containing aqueous solutions of cyclic peptides on the 96-well plate. Final [hIAPP]=10 μM, [ThT]=5 μM.
ThT assay conditions. The plate was then quickly covered and incubated in a Tecan M Plex microplate reader under quiescent condition at 32° C. for at least 12 h. ThT fluorescence at 480 nm was measured every 5 min through the bottom of the plate using an excitation wavelength of 440 nm.
Fitting of aggregation kinetics. ThT aggregation kinetics data was fit to a sigmoidal function using GraphPad Prism and the aggregation lag time (tlag) and the apparent fibril elongation rate (kapp) calculated as described.^55

Row | Substance | complex with hIAPP detected by native mass spectrometry (hIAPP [1]) | effect on aggregation lag time (tlag) (hIAPP [2]) | activity relative to MCIP-2a (hIAPP [2]) | inhibition of hIAPP aggregation (ThT fluorescence) (hIAPP [2])
1 | CDLGVFR (cyclised; Circular) [cyclo-CDLGVFR] | 1:1 complexes | extended tlag | less active than MCIP-2a | inhibited hNAPP fibrillation
2 | CHVVGVI (cyclised; Circular) [cyclo-CHVVGVI] | 1:1 complex | delaying the aggregation lag time (tlag) in a dose-dependent fashion | less active than MCIP-2a | inhibited hIAPP aggregation
3 | CRCVFSG (cyclised; Circular) [cyclo-CRCVFSG] | 1:1 complexes | extended tlag | less active than MCIP-2a | inhibited hNAPP fibrillation
